Test results: the supplement of paper PMC7877785
± gives the uncertainty stated by the source.

Assay: self-splicing fitness, log relative to wild type (ln ratio); higher = more splicing; Tetrahymena group I intron in knt gene, E. coli kanamycin selection, DiMSum; sequences stand for … in CUCUCU…GGAGGGAAAAGUUAUCAGGCAUGCACCUGGUAGCUAGUCUUUAAACCAAUAGAUUGCAUCGGUUUAAAAGGCAAGACCGUCAAAUUGCGGGAAAGGGGUCAACAGCCGUUCAGUACCAAGUCUCAGGGGAAACUUUGAGAUGGCCUUGCAAAGGGUAUGGUAAUAAGCUGACGGACAUGGUCCUAACCACGCAGCCAAGUCCUAAGUCAACAGAUCUUCUGUUGAUAUGGAUGCAGUUCACAGACUAAAUGUCGGUCGGGGAAGAUGUAUUCUUCUCAUAAGAUAUAGUCGGACCUCUCCUUAAUGGGAGCUAGCGGAUGAAGUGAUGCAACACUGGAGCCGCUGGGAACUAAUUUGUAUGCGAAAGUAUAUUGAUUAGUUUUGGAGUACUCGUGGUCG
Outline: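 Six replicate transformations of E. coli BL21(DE3) with a pET-22b(+) library were grown overnight at 37°C or 30°C. The library randomised all eight P1ex-region intron nucleotides, the intron lying in the knt kanamycin-resistance gene, and plates were LB agar with or without 25 μg/mL kanamycin plus 100 μg/mL carbenicillin, 50 μM IPTG and 0.2% rhamnose. Pooled colonies were amplicon-sequenced on an Illumina HiSeq 2500, and fitness is the DiMSum error-weighted combination of wild-type-normalised replicate fold changes, kanamycin versus none.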

Sequence | self-splicing fitness (ln) (30 °C) | self-splicing fitness (ln) (37 °C)
ACUAAGCAAUAUUACGUACA | -1.55 ± 0.086 | -1.14 ± 0.087
ACUAAGCAAUAUUACGUACG | -1.76 ± 0.12 | -0.814 ± 0.16
ACUAAGCAAUAUUACGUCCA | -1.54 ± 0.12 | -1.22 ± 0.16
ACUAAGCAAUAUUACGUCCU | -0.876 ± 0.095 | 0.0118 ± 0.14
ACUAAGCAAUAUUACGUCGC | -3.12 ± 0.18 | -1.86 ± 0.2
ACUAAGCAAUAUUACGUCUU | -1.5 ± 0.075 | -1.14 ± 0.078
ACUAAGCAAUAUUACGUUAG | -2.59 ± 0.13 | -2.1 ± 0.17
ACUAAGCAAUAUUACGUUUC | -4.35 ± 0.26 | -1.85 ± 0.19
ACUCAGCAAUAUUACGACAG | -1.94 ± 0.11 | -0.382 ± 0.12
ACUCAGCAAUAUUACGAGCU | -1.04 ± 0.064 | -0.447 ± 0.079
ACUCAGCAAUAUUACGAUUU | 0.00163 ± 0.057 | 0.417 ± 0.073
ACUCAGCAAUAUUACGCAGC | -2.14 ± 0.079 | -0.903 ± 0.093
ACUCAGCAAUAUUACGCAUA | -1.35 ± 0.082 | -0.543 ± 0.094
ACUCAGCAAUAUUACGCAUU | -0.878 ± 0.049 | -0.294 ± 0.06
ACUCAGCAAUAUUACGCCAG | -0.898 ± 0.087 | -1.27 ± 0.15
ACUCAGCAAUAUUACGCCGU | -1.24 ± 0.076 | -0.58 ± 0.093
ACUCAGCAAUAUUACGCCUG | -3.39 ± 0.22 | -1.5 ± 0.2
ACUCAGCAAUAUUACGCGGU | -3.73 ± 0.19 | -2.01 ± 0.21
ACUCAGCAAUAUUACGCGUG | -1.35 ± 0.073 | -0.547 ± 0.081
ACUCAGCAAUAUUACGCUCA | -0.566 ± 0.096 | 0.105 ± 0.14
ACUCAGCAAUAUUACGCUCG | -0.26 ± 0.087 | 0.176 ± 0.12
ACUCAGCAAUAUUACGGCGG | -0.825 ± 0.078 | -0.0415 ± 0.095
ACUCAGCAAUAUUACGGGAG | -1.56 ± 0.051 | -1.11 ± 0.067
ACUCAGCAAUAUUACGGUCC | -1.91 ± 0.11 | -0.708 ± 0.14

Sequence | self-splicing fitness (ln) (30 °C) | self-splicing fitness (ln) (37 °C)
ACUCAGCAAUAUUACGUAGC | -1.24 ± 0.069 | -0.786 ± 0.11
ACUCAGCAAUAUUACGUCAA | -2.56 ± 0.1 | -1.78 ± 0.14
ACUCAGCAAUAUUACGUCGC | -2.57 ± 0.24 | -0.332 ± 0.17
ACUCAGCAAUAUUACGUGGA | -1.96 ± 0.078 | -1.54 ± 0.082
ACUCAGCAAUAUUACGUGGU | -3.75 ± 0.12 | -2.75 ± 0.12
ACUCAGCAAUAUUACGUUUC | -2.88 ± 0.17 | -2.33 ± 0.21
ACUGAGCAAUAUUACGAAAA | – | -1.32 ± 0.43
ACUGAGCAAUAUUACGAAAC | -4.21 ± 0.42 | -1.42 ± 0.38
ACUGAGCAAUAUUACGAAAG | -2.67 ± 0.15 | -1.73 ± 0.18
ACUGAGCAAUAUUACGAAGC | – | -2.04 ± 0.46
ACUGAGCAAUAUUACGAAUC | -3.54 ± 0.36 | -2.55 ± 0.21
ACUGAGCAAUAUUACGACCC | – | -0.357 ± 0.33
ACUGAGCAAUAUUACGACUC | -2.18 ± 0.16 | -1.13 ± 0.2
ACUGAGCAAUAUUACGAGAC | -2.78 ± 0.22 | -2.63 ± 0.2
ACUGAGCAAUAUUACGAGAU | -4.18 ± 0.33 | -2.27 ± 0.21
ACUGAGCAAUAUUACGAGCC | -3.59 ± 0.4 | –
ACUGAGCAAUAUUACGAUGC | -2.69 ± 0.16 | -0.416 ± 0.15
ACUGAGCAAUAUUACGAUUU | -1.12 ± 0.082 | -0.446 ± 0.12
ACUGAGCAAUAUUACGCAUA | -2.14 ± 0.31 | -1.77 ± 0.44
ACUGAGCAAUAUUACGCCAC | – | -2.31 ± 0.35
ACUGAGCAAUAUUACGCUCU | -3.59 ± 0.2 | -2.31 ± 0.24
ACUGAGCAAUAUUACGGCGG | -1.46 ± 0.1 | -1.54 ± 0.13
ACUGAGCAAUAUUACGGCUA | -1.61 ± 0.15 | -1.63 ± 0.16
ACUGAGCAAUAUUACGGGUA | -3.08 ± 0.24 | -1.67 ± 0.14

Sequence | self-splicing fitness (ln) (30 °C) | self-splicing fitness (ln) (37 °C)
ACUGAGCAAUAUUACGGGUC | -4.21 ± 0.27 | -3.02 ± 0.33
ACUGAGCAAUAUUACGGGUG | -2.49 ± 0.15 | -1.38 ± 0.15
ACUGAGCAAUAUUACGGGUU | -2.09 ± 0.1 | -3.88 ± 0.28
ACUGAGCAAUAUUACGUGCA | -2.8 ± 0.2 | -2.36 ± 0.25
ACUGAGCAAUAUUACGUGUA | -3.51 ± 0.2 | -2.5 ± 0.17
ACUUAGCAAUAUUACGACAG | -0.902 ± 0.08 | 0.0363 ± 0.1
ACUUAGCAAUAUUACGACGU | -0.13 ± 0.076 | 0.549 ± 0.079
ACUUAGCAAUAUUACGCGCA | -0.717 ± 0.093 | -0.258 ± 0.13
ACUUAGCAAUAUUACGCGCC | -1.35 ± 0.18 | -0.348 ± 0.19
ACUUAGCAAUAUUACGCGUA | -1.82 ± 0.2 | -1.18 ± 0.2
ACUUAGCAAUAUUACGCGUG | -1.89 ± 0.1 | -1.13 ± 0.11
ACUUAGCAAUAUUACGCUAA | -2.99 ± 0.39 | -3.09 ± 0.29
ACUUAGCAAUAUUACGGAUA | -3.09 ± 0.28 | -1.15 ± 0.18
ACUUAGCAAUAUUACGGAUC | -2.09 ± 0.11 | -1.35 ± 0.16
ACUUAGCAAUAUUACGGCCG | -0.516 ± 0.071 | -0.251 ± 0.11
ACUUAGCAAUAUUACGGGAG | -1.75 ± 0.072 | -1.3 ± 0.085
ACUUAGCAAUAUUACGGUCU | -1.41 ± 0.088 | 0.0181 ± 0.082
ACUUAGCAAUAUUACGGUUG | -3.15 ± 0.17 | -1.43 ± 0.15
ACUUAGCAAUAUUACGUCAG | -1.93 ± 0.11 | -1.56 ± 0.12
ACUUAGCAAUAUUACGUCCA | -1.56 ± 0.2 | -0.528 ± 0.2
ACUUAGCAAUAUUACGUGAG | -0.348 ± 0.067 | -0.0975 ± 0.087
ACUUAGCAAUAUUACGUGGG | -2.95 ± 0.14 | -1.14 ± 0.12
ACUUAGCAAUAUUACGUUAA | -4.2 ± 0.46 | -2.02 ± 0.2
ACUUAGCAAUAUUACGUUUC | -4.28 ± 0.31 | -2.78 ± 0.27

Sequence | self-splicing fitness (ln) (30 °C) | self-splicing fitness (ln) (37 °C)
AGAAAGCAAUAUUACGAAGC | -3.61 ± 0.47 | -2.91 ± 0.48
AGAAAGCAAUAUUACGAAUC | -3 ± 0.26 | -2.39 ± 0.24
AGAAAGCAAUAUUACGACUA | -0.244 ± 0.12 | -0.42 ± 0.12
AGAAAGCAAUAUUACGACUG | -1.04 ± 0.093 | -0.249 ± 0.12
AGAAAGCAAUAUUACGAGCC | -2.01 ± 0.17 | -0.816 ± 0.21
AGAAAGCAAUAUUACGAGCU | -0.0239 ± 0.055 | 0.0125 ± 0.072
AGAAAGCAAUAUUACGAGUG | -2.27 ± 0.094 | -1.96 ± 0.12
AGAAAGCAAUAUUACGAGUU | -1.58 ± 0.084 | -0.668 ± 0.11
AGAAAGCAAUAUUACGAUGA | -0.734 ± 0.1 | -0.785 ± 0.11
AGAAAGCAAUAUUACGAUUC | -1.03 ± 0.095 | -1.07 ± 0.14
AGAAAGCAAUAUUACGCAAC | -1.96 ± 0.25 | -2.02 ± 0.39
AGAAAGCAAUAUUACGCAGU | -2.5 ± 0.16 | -2.07 ± 0.2
AGAAAGCAAUAUUACGCCCU | 0.0807 ± 0.13 | 0.131 ± 0.14
AGAAAGCAAUAUUACGCUCA | -0.775 ± 0.15 | 1.19 ± 0.18
AGAAAGCAAUAUUACGCUCC | -1.89 ± 0.23 | -1.19 ± 0.24
AGAAAGCAAUAUUACGCUGG | -3.7 ± 0.36 | -2.77 ± 0.31
AGAAAGCAAUAUUACGCUUU | -3.57 ± 0.23 | -3.24 ± 0.4
AGAAAGCAAUAUUACGGCGA | -0.0252 ± 0.17 | -1.02 ± 0.14
AGAAAGCAAUAUUACGGGCU | -1.04 ± 0.12 | -0.993 ± 0.13
AGAAAGCAAUAUUACGGGGG | -3.3 ± 0.15 | -2.71 ± 0.17
AGAAAGCAAUAUUACGGUGU | -2.76 ± 0.098 | -1.28 ± 0.096
AGAAAGCAAUAUUACGUCGA | -0.974 ± 0.069 | -0.242 ± 0.08
AGAAAGCAAUAUUACGUGCC | -0.45 ± 0.12 | -0.309 ± 0.16
AGAAAGCAAUAUUACGUUCG | -0.631 ± 0.07 | 0.484 ± 0.092
